The values below are quoted from earlier work in paper PMC9010944.

This data set has as its target PDGF-BB (Homo sapiens) (UniProt P01127).

Sequence of Perlecan domain III-2 (P98160 924-1324): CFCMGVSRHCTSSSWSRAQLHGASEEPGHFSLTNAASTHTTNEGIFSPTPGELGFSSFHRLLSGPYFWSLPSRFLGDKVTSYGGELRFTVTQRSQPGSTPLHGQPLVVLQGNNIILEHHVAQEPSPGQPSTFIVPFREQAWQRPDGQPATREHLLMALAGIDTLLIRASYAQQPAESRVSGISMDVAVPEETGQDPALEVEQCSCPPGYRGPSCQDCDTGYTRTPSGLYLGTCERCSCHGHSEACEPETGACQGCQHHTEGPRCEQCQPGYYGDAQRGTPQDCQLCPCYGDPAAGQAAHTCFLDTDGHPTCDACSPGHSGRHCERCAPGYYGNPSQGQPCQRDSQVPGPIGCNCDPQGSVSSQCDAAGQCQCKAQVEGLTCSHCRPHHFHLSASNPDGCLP
Sequence of PDGF-BB (Homo sapiens) (P01127 82-190): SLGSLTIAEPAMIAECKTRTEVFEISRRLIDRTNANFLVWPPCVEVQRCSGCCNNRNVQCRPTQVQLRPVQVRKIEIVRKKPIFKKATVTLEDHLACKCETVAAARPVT

Turning to “Perlecan domain III-2 (from UniProt P98160)”, the Kd (as a rule, the equilibrium constant for the complex coming apart) was 8 nM.
